According to paper PMC2680043, “Characterization of a Novel Small Molecule Subtype Specific Estrogen-Related Receptor α Antagonist in MCF-7 Breast Cancer Cells” (PLoS ONE, 2009):

Experiments:
Test in all cases: pull-down; biotinylated coactivator RID bound to streptavidin beaded agarose; in vitro translated [35S]-labeled ERRα added in 1x TBS with 10 µM Compound A, 4 hours at 4°C; SDS gel, phosphorimaging; compared with the DMSO sample
Details in all cases: one partner purified
[1] = biological target: T1, PGC-1α receptor interaction domain (RID), aa 1-338, biotinylated (UniProt Q9UBK2 1-338, biotinylated (sites not given))
T1 construct: also called PGC-1α RID; PPARGC1A
T1 sequence (looked up): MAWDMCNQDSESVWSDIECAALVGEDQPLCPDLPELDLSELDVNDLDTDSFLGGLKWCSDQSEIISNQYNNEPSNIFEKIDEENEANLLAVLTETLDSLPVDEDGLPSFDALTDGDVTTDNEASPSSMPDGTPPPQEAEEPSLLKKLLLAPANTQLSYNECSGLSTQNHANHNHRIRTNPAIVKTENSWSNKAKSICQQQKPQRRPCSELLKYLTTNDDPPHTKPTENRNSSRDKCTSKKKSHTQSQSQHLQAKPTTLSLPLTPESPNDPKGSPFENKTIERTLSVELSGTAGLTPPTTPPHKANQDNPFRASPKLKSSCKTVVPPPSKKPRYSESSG

[2] = biological target: T2, GRIP-1 receptor interaction domain (RID), aa 565-798, biotinylated (UniProt Q61026 565-798, biotinylated (sites not given))
T2 construct: also called GRIP-1 RID; SRC-2
T2 sequence (looked up): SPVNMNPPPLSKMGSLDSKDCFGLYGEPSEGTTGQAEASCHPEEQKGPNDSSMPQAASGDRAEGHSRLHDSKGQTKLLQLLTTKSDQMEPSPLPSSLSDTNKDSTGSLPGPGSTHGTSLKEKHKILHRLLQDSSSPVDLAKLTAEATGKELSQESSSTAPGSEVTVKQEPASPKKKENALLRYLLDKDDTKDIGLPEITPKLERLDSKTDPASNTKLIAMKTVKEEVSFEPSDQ

[3] = biological target: T3, AIB1 receptor interaction domain (RID), aa 557-773, biotinylated (UniProt Q9Y6Q9 557-773, biotinylated (sites not given))
T3 construct: also called AIB1 RID; SRC-3
T3 sequence (looked up): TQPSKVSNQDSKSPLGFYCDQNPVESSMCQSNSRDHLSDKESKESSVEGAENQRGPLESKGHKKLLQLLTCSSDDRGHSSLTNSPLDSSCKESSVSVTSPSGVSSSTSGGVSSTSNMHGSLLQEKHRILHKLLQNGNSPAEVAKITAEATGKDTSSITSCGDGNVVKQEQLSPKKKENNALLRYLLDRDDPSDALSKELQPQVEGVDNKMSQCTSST

percent reduction of the interaction with 10 µM Compound A against vehicle (DMSO) [1]: 81% | percent reduction of the interaction with 10 µM Compound A against vehicle (DMSO) [2]: 29% | percent reduction of the interaction with 10 µM Compound A against vehicle (DMSO) [3]: 35%
B1: full-length human estrogen-related receptor α (ERRα), [35S]methionine-labeled (receptor, UniProt P11474 1-423, looked up)
chain: MSSQVVGIEPLYIKAEPASPDSPKGSSETETEPPVALAPGPAPTRCLPGHKEEEDGEGAGPGEQGGGKLVLSSLPKRLCLVCGDVASGYHYGVASCEACKAFFKRTIQGSIEYSCPASNECEITKRRRKACQACRFTKCLRVGMLKEGVRLDRVRGGRQKYKRRPEVDPLPFPGPFPAGPLAVAGGPRKTAAPVNALVSHLLVVEPEKLYAMPDPAGPDGHLPAVATLCDLFDREIVVTISWAKSIPGFSSLSLSDQMSVLQSVWMEVLVLGVAQRSLPLQDELAFAEDLVLDEEGARAAGLGELGAALLQLVRRLQALRLEREEYVLLKALALANSDSVHIEDAEAVEQLREALHEALLEYEAGRAGPGGGAERRRAGRLLLTLPLLRQTAGKVLAHFYGVKLEGKVPMHKLFLEMLEAMMD
modifications: [35S]methionine label
notes: estrogen-related receptor alpha, human, full length, amplified from human brain Marathon-ready cDNA and cloned into pcDNA3.1(+); No tag is named for this construct; also called hERRα; ESRRA; source: in vitro translated (TnT coupled reticulocyte lysate system, Promega), [35S]methionine added
